This data set in a line: yeast display, Sf9 membrane polyspecificity reagent, FACS + sequencing; frameworks hold sequencing errors. Summed up:
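Nanobodies from a synthetic yeast display library (Saccharomyces cerevisiae BJ5465), induced 36–48 hours with galactose, were stained 1 hour at 4 °C with 10% biotinylated, detergent-solubilized Sf9 membrane reagent, enriched on streptavidin microbeads, then FACS-sorted. Anti-HA (expression) and streptavidin (reagent binding) fluorescence set low and high (top ~1%) gates. Polyreactivity labels come from the gate of origin. Genes were colony-PCR amplified, MiSeq 2 × 250 sequenced and filtered by CDR length.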
Regarding “QVQLEESGGGLVQAGGSLRISCAASGRTLRSYAMGWYRQAPGKERELVAAISWNGGDTYADSVKGRFTISRDNAKNTVYLQMNSLKPEDTAVYYCAASRWFSRYWYGIDKYNYWGQGTQVTVSS”, the “polyreactivity (PSR sort gate)” value is “high polyreactivity”.

In the case of “QVQHVDSGGGLVQAGGSLRLSCAASGIYVVYAMGWYRQAPGKERELVAAISSGVSTTYADSVKGRFTISRDNAKNTVYLQMNSLKPEDTAVYYCNTLWGHHYIVPYRTREFYYWGQGTQVTVSS”, the “polyreactivity (PSR sort gate)” value is “low polyreactivity”. As for “QDQLVESGGGLVQAGGSLRLSCAASGITFSGNAKGCYRQAPGKETELVAAISRNGGRTYYADSVKGRFTISRDNAKNTVYLQMNSLKQEDTAVYYCAKDAYGYFRVSAWYYTYDYWGQGTQVTVSS”, the “polyreactivity (PSR sort gate)” value is recorded as “high polyreactivity”.

“QVQLVESGGGLVQAGGSLRLSCAASGSTFPDYVMGWYRQAPGKERELVAAISSIGGSTYYADSVKGRFTISRDKAKNTVYLQMNSLKPEDTAVYYCAAENSYFYPFDYWGQGTQVTVSS”: the “polyreactivity (PSR sort gate)” value is listed as “low polyreactivity”. Regarding “QVQLVESGGGLVQAGGSLRLSCAASRLTFRYYAMGWYRQAPGKERELVASISSSSGSTYYADSVKGRFTISRDNAKNTVYFQMNSLKPEDTAVYYCNARGWTLGADFGYWGQGTQVTVSS”, the “polyreactivity (PSR sort gate)” value is given as “low polyreactivity”. As to “QVQLVESGGGLVQAGGSLRLTCAASGSIFRYYAMGWYRQAPGKERELVAAISSNGGSTYYADSVKGRFTISRDNAKNTVYLQMNSLKPEDTAVYYCAALFRRAPGYYWGQGTQVTVSS”, the “polyreactivity (PSR sort gate)” value is reported as “high polyreactivity”. As to “QVQLVESGGGLVQAGGSLRLSCAASGIIFAYNVIGWSRPAPGKERELVAAIRWGGGSTYADSVKGRFTISRDNAKNTVYLQMNSLKPEDTAVYYCATRYRSYYAKYGYNYWGQGTQVTVSS”, the “polyreactivity (PSR sort gate)” value is given as “high polyreactivity”. Regarding “QVQLVESGGGLVQAGGSLRLSCAASGPTFDYYAMGWYRQAPGKERELVAAISYSGGNSYYADSVKGRFTISRDNAKNTVYLQMNSLKPEDTAVYYWAANPAARDGRKTGYFCGQGTQVTVSS”, the “polyreactivity (PSR sort gate)” value was “high polyreactivity”. The entry for “QVQLVESGGGLVQAGGSLRLSCAASGRIFVRNAMGWYRQAPGKERELVADITNGGSTNYADSVKGRFTISRDNAKNTVYLQMNSLKPEDTAVYYCAADTLGVYDGDYWGQGTQVTVSS” is “low polyreactivity”. With “QVQLVESGGGLVQAGGSLRLSCAASGSTFYLYAMGWYRQAPGKERELVAVITTDGSTTYADSVKGRFTISRDNAKNTVYLQMNSLKPEDTAVYYCAAYGGNGQYYSQYDYWGQGTQVTVSS”, the “polyreactivity (PSR sort gate)” value is given as “low polyreactivity”.

Source of the values: the nanobody polyreactivity screen of Harvey et al. (2022).
